In patent US20030147861A1, “Compounds and methods for the modulation of immune responses” (Genesis Research and Development Corporation Limited, priority 2001, published 2003):
“Also recorded” adds a separate entry of the source.

Legend:
[1] = tested on: TLR2, TLR4 and CD14 on THP-1 cells (IL-12p40, TNFα, IL-10 production); experiment: Cytokine production by THP-1 cells pre-treated with mAbs to TLR2, TLR4 or CD14 and cultured with M. vaccae derivatives (ELISA); type: cell-based, human; conditions: mAb pre-treatment 60 minutes, 0.32-1000 μg/mL; stimulus 5 μg/mL, 24 hours
Procedure: In subsequent experiments, the effect of antibodies to TLR2, TLR4 and CD14 on the production of IL-12p40, IL-10 and TNF-α in THP-1 cells in response to M. vaccae derivatives was examined as follows.
Prior to culture with M. vaccae derivatives, 50 μL of THP-1 cells in cRPMI-10 were pre-treated in duplicate microplate wells with 50 μL of serially diluted Functional Grade mabs to human TLR2 (clone TL2.1, IgG2a isotype, eBioscience cat. no. 16-9922-82), TLR4 (clone HTA125, IgG2a isotype, eBioscience cat. no. 16-9927-82), or CD14 (clone RM052, IgG2a isotype, Coulter cat. no. IM0643), with a cocktail of all three antibodies or with control mAb (clone AcV1, IgG2a isotype, eBioscience cat. no. 16-4724-85), with each mAb used at a final concentration of 1000 μg/mL, 200 μg/mL, 40 μg/mL, 8.0 μg/mL, 1.60 μg/mL, or 0.32 μg/mL, or with no mAb. Pretreatment of cells with mAbs was for 60 minutes in a water-jacketed, humidified incubator at 37° C. supplied with 5% CO2 in air.
At the end of the 24-hour incubation period, the microplates were centrifuged at 200×g for 5 minutes and the supernatants collected and transferred to a sterile 96-well round-bottom plate.
IL-12p40, TNFα, and IL-10 content in the microculture supernatants was determined by sandwich ELISA using commercially available sets according to the manufacturer's recommendations. […]

[2] = tested on: dendritic cells with allogeneic T cells; experiment: Dendritic cell mixed lymphocyte reaction (MLR) assay; type: cell-based; conditions: 20 μg/ml for 18-20 hours, then allogeneic T cells
Procedure: The ability of GV-23 to enhance dendritic cell function as antigen presenting cells was determined by mixed lymphocyte reaction (MLR) assay. Purified dendritic cells were cultured in medium alone or with GV-23 (20 μg/ml) for 18-20 hours and then stimulated with allogeneic T cells (2×10^5 cells/well). After 3 days of incubation, (^3H)-thymidine was added. Cells were harvested 1 day later and the uptake of radioactivity was measured.

[3] = tested on: CD40, CD80 and CD86 on monocytes; experiment: CD40, CD80 and CD86 expression on monocytes (3 color flow cytometry); type: cell-based, human; conditions: 20 ug/ml, 48 hours, vs non-stimulated cells
From the text: (§1) Stimulated cells were harvested and analyzed for up-regulation of CD40, CD80 and CD86 using 3 color flow cytometric analysis. Tables 16, 17 and 18 show the fold increase in mean fluorescence intensity from control (non-stimulated cells) for dendritic cells, monocytes, and B cells, respectively.

[4] = tested on: popliteal lymph node cells; experiment: Proliferation of lymph node cells from GV protein-immunized mice; type: cell-based, female BALB/cByJ mice; conditions: lymph node cells of mice immunized with 10 μg of the same GV protein in IFA
Procedure: (§2) The immunogenicity of Mycobacterium vaccae recombinant proteins (referred to herein as GV recombinant proteins) was tested by injecting female BALB/cByJ mice in each hind foot-pad with 10 μg of recombinant GV proteins emulsified in incomplete Freund's adjuvant (IFA). Control mice received phosphate buffered saline in IFA. The draining popliteal lymph nodes were excised 10 days later and the cells obtained therefrom were stimulated with the immunizing GV protein and assayed for proliferation by measuring the uptake of tritiated thymidine. The amount of interferon gamma (IFNγ) produced and secreted by these cells into the culture supernatants was assayed by standard enzyme-linked immunoassay.

[5] = tested on: CD83 and CD80 on purified dendritic cells; experiment: Dendritic cell maturation: CD83 and CD80 expression (flow cytometry); type: cell-based; conditions: GV-23 20 μg/ml or LPS 10 μg/ml, 20 hour, mean ± SD (n = 3)
Procedure: The effect of the recombinant M. vaccae protein GV-23 on the maturation and function of dendritic cells was examined as follows.
Purified dendritic cells (5×10^4−10^5 cells/ml) were stimulated with GV-23 (20 μg/ml) or LPS (10 μg/ml) as a positive control. Cells were cultured for 20 hour and then analyzed for CD83 (a maturation marker) and CD80 expression by flow cytometry. Non-stimulated cells were used as a negative control.

[6] = tested on: IL-1β, TNF-α, IL-12 and IFN-γ production in PBMC; experiment: Cytokine production in PBMC from normal donors (ELISA); type: cell-based, human
[7] = tested on: CD40, CD80 and CD86 on dendritic cells; type: cell-based, human
[8] = tested on: CD40, CD80 and CD86 on B cells; experiment: CD40, CD80 and CD86 expression on B cells (3 color flow cytometry); type: cell-based, human; conditions: 20 ug/ml, 48 hours, vs non-stimulated cells
From the text: as §1

[9] = tested on: CD69 on αβT cells, γδT cells and NK cells; type: cell-based, human
[10] = tested on: IFNγ production by lymph node cells; experiment: IFNγ production by lymph node cells from GV protein-immunized mice (enzyme-linked immunoassay); type: cell-based, female BALB/cByJ mice; conditions: lymph node cells of mice immunized with the same GV protein
Procedure: as §2

[11] = Dose of GV protein used in vitro 2 μg/ml
[12] = Dose of GV protein used in vitro 50 μg/ml
[13] = dendritic cells, 20 ug/ml, 48 hours, vs non-stimulated cells

For “TLR2 mAb: Functional Grade mAb to human TLR2, clone TL2.1, IgG2a isotype (eBioscience) [reference compound]”, the “inhibition of M. vaccae-, AVAC- and DD-M. vaccae-induced production of IL-12p40 by THP-1 cells” value [1] was “inhibited by TLR2 and CD14 mAbs in a dose-dependent fashion”.

B1: GV-23: recombinant M. vaccae antigen, amino acid sequence SEQ ID NO: 38 (protein, listed as Mycobacterium vaccae)
chain: VIEIDHVTKRFGDYLAVADADFSIAPGEFFSMLGPSGCGKTTTLRMIAGFETPTEGAIRLEGADVSRTPPNKRNVNTVFQHYALFPHMTVWDNVAYGPRSKKLGKGEVRKRVDELLEIVRLTEFAERRPAQLSGGQQQRVALARALVNYPSALLLDEPLGALDLKLRHVMQFELKRIQREVGITFIYVTHDQEEALTMSDRIAVMNAGNVEQIGSPTEIYDRPATVFVASFIGQANLWAGRCTGRSNRDYVEIDVLGSTLKARPGETTIEPGGHATLMVRPERIRVTPGSQDAPTGDVACVRATVTDLTFQGPVVRLSLAAPDDSTVIAHVGPEQDLPLLRPGDDVYVSWAPEASLVLPGDDIPTTEDLEEMLDDS
B1 was tested, and the “dendritic cell mixed lymphocyte reaction ((3H)-thymidine uptake)” value [2] was “enhances dendritic cell mixed lymphocyte reaction”, the “CD40 expression, fold increase in mean fluorescence intensity from control” value (from here on “CD40 expression, fold increase”) [3] was 2.3 fold and the “CD80 expression, fold increase in mean fluorescence intensity from control” value (shortened to “CD80 expression, fold increase”) [3] was 1.5 fold. For the same molecule, the “CD86 expression, fold increase in mean fluorescence intensity from control” value (“CD86 expression, fold increase” below) [3] was 0.7 fold, the “Proliferation (cpm)” value ([4]; Dose of GV protein used in vitro 0.08 μg/ml) was 7,393 ± 2,188 cpm and the “Proliferation (cpm)” value [4, 11] was 15,423 ± 2,858 cpm. For the same molecule, the “Proliferation (cpm)” value [4, 12] was 35,598 ± 1,330 cpm, the “% CD80-positive dendritic cells” value ([5]; control 9 ± 6.6) was 24.7 ± 14.2% and the “% CD83-positive dendritic cells” value ([5]; control 15 ± 8) was 35 ± 13.2%. The “production of IL-1β, TNF-α, IL-12 and IFN-γ by PBMC” value [6] was “stimulate the production of IL-1β, TNF-α and IL-12; also recorded: induced significant levels of the four cytokines examined”, the “IL-1β production by PBMC relative to known adjuvants” value ([6]; GV-23 20 μg/ml) was “higher levels of IL-1β production being seen with GV-23 than with any of the known adjuvants” and the “CD40, CD80 and CD86 expression in dendritic cells, comparison with adjuvants” value [7] was “significant up-regulation of CD40, CD80 and CD86”. The “CD40, CD80 and CD86 expression on dendritic cells” value ([7]; 20 ug/ml, 48 hours, T cell-depleted PBMC) was “highest levels of expression”, the “CD40 expression, fold increase” value [7, 13] was 6.0 fold and the “CD80 expression, fold increase” value [7, 13] was 4.5 fold. The “CD86 expression, fold increase” value [7, 13] was 1.8 fold, the “CD40 expression, fold increase” value [8] was 1.2 fold and the “CD80 expression, fold increase” value [8] was 1.1 fold. The “CD86 expression, fold increase” value [8] was 1.4 fold, the “CD69 expression on NK cells, comparison with adjuvants” value [9] was “induced CD69 expression on NK cells” and the “percentage of αβT cells expressing CD69” value ([9]; PBMC from normal donors, 20 ug/ml, 24 hours, control 3.8) was 5.8%. The “percentage of NK cells expressing CD69” value ([9]; PBMC from normal donors, 20 ug/ml, 24 hours, control 4.8) was 46.8%, the “percentage of γδT cells expressing CD69” value ([9]; PBMC from normal donors, 20 ug/ml, 24 hours, control 6.2) was 10.0% and the “IFNγ” value [10, 11] was 9.17 ± 1.51 ng/mL. The “IFNγ” value ([10]; Dose of GV protein used in vitro 10 μg/ml) was 30.70 ± 4.48 ng/mL and the “IFNγ” value [10, 12] was 59.67 ± 14.88 ng/mL.
